Each sequence was assayed on Escherichia coli TOP10 (assay: shrunken log2 fold change of peptide-encoding DNA abundance (4.5 h post-induction vs induction); higher = less antimicrobial activity (less host growth inhibition)). Settings: time post-induction: 4.5 h; library: site-saturation at positions 5, 18, 19, 20.
For RRIRARPPRLPRPRPRPQSFPRP, the “shrunken log2 fold change” value was -0.121.
In the case of RRIRRRPPRLPRPRPRPWAEPRP, the “shrunken log2 fold change” value is reported as 2.36.
For RRIRKRPPRLPRPRPRPEMDPRP, the “shrunken log2 fold change” value was 0.0842.
For RRIRDRPPRLPRPRPRPYMFPRP, the “shrunken log2 fold change” value was -0.244.
In the case of RRIRSRPPRLPRPRPRPHCVPRP, the “shrunken log2 fold change” value is reported as -0.0724.
RRIRVRPPRLPRPRPRPHPPPRP was tested, and the “shrunken log2 fold change” value was 0.361.
In the case of RRIRMRPPRLPRPRPRPAAPPRP, the “shrunken log2 fold change” value is reported as 1.65.
In the case of RRIRFRPPRLPRPRPRPCDGPRP, the “shrunken log2 fold change” value is reported as -0.0604.
For RRIRERPPRLPRPRPRPVTHPRP, the “shrunken log2 fold change” value was -0.194.
In the case of RRIRPRPPRLPRPRPRPMTVPRP, the “shrunken log2 fold change” value is reported as -0.038.
In the case of RRIRERPPRLPRPRPRPIRGPRP, the “shrunken log2 fold change” value is reported as 0.0978.
With RRIRIRPPRLPRPRPRPCHPPRP the “shrunken log2 fold change” value was -0.447.
For RRIRGRPPRLPRPRPRPYIEPRP, the “shrunken log2 fold change” value was -0.114.
In the case of RRIRPRPPRLPRPRPRPDFQPRP, the “shrunken log2 fold change” value is reported as 0.262.
In the case of RRIRVRPPRLPRPRPRPQLNPRP, the “shrunken log2 fold change” value is reported as -0.292.
For RRIRIRPPRLPRPRPRPYRFPRP, the “shrunken log2 fold change” value was -0.636.
For RRIRKRPPRLPRPRPRPAEAPRP, the “shrunken log2 fold change” value was 0.959.
For RRIRARPPRLPRPRPRPTWVPRP, the “shrunken log2 fold change” value was 0.225.
RRIRARPPRLPRPRPRPEFDPRP was tested, and the “shrunken log2 fold change” value was 1.44.
With RRIRIRPPRLPRPRPRPINCPRP the “shrunken log2 fold change” value was -0.0883.
RRIRFRPPRLPRPRPRPEYVPRP was tested, and the “shrunken log2 fold change” value was -0.15.
In the case of RRIRHRPPRLPRPRPRPDKVPRP, the “shrunken log2 fold change” value is reported as 0.1.
RRIRGRPPRLPRPRPRPMVRPRP was tested, and the “shrunken log2 fold change” value was 0.03.
In the case of RRIRHRPPRLPRPRPRPSVIPRP, the “shrunken log2 fold change” value is reported as -0.369.
In the case of RRIRCRPPRLPRPRPRPVGSPRP, the “shrunken log2 fold change” value is reported as 0.0443.
With RRIRMRPPRLPRPRPRPHYHPRP the “shrunken log2 fold change” value was -0.493.
With RRIRLRPPRLPRPRPRPEQKPRP the “shrunken log2 fold change” value was 0.0115.
With RRIRNRPPRLPRPRPRPADNPRP the “shrunken log2 fold change” value was 0.0856.
In the case of RRIRERPPRLPRPRPRPCQAPRP, the “shrunken log2 fold change” value is reported as -0.0282.
For RRIRLRPPRLPRPRPRPPMYPRP, the “shrunken log2 fold change” value was -0.093.
In the case of RRIRARPPRLPRPRPRPMEPPRP, the “shrunken log2 fold change” value is reported as 0.0999.
For RRIRWRPPRLPRPRPRPSGGPRP, the “shrunken log2 fold change” value was 2.77.
RRIRIRPPRLPRPRPRPADMPRP was tested, and the “shrunken log2 fold change” value was -0.0222.
RRIRWRPPRLPRPRPRPHWDPRP was tested, and the “shrunken log2 fold change” value was -0.0409.
In the case of RRIRYRPPRLPRPRPRPSCWPRP, the “shrunken log2 fold change” value is reported as -0.349.
In the case of RRIRLRPPRLPRPRPRPDVCPRP, the “shrunken log2 fold change” value is reported as 0.0271.
With RRIRVRPPRLPRPRPRPANCPRP the “shrunken log2 fold change” value was 0.031.
In the case of RRIRRRPPRLPRPRPRPYASPRP, the “shrunken log2 fold change” value is reported as -0.0782.
For RRIRARPPRLPRPRPRPVGRPRP, the “shrunken log2 fold change” value was 0.691.
In the case of RRIRTRPPRLPRPRPRPNYYPRP, the “shrunken log2 fold change” value is reported as -0.66.
For RRIRQRPPRLPRPRPRPKTYPRP, the “shrunken log2 fold change” value was -0.241.
With RRIRDRPPRLPRPRPRPAPIPRP the “shrunken log2 fold change” value was 0.32.
With RRIRTRPPRLPRPRPRPWRTPRP the “shrunken log2 fold change” value was 0.112.
With RRIRPRPPRLPRPRPRPEDDPRP the “shrunken log2 fold change” value was 0.413.
For RRIRARPPRLPRPRPRPIIAPRP, the “shrunken log2 fold change” value was 0.00311.
For RRIRERPPRLPRPRPRPPWTPRP, the “shrunken log2 fold change” value was -0.0555.
For RRIRFRPPRLPRPRPRPPWDPRP, the “shrunken log2 fold change” value was 0.195.
For RRIRMRPPRLPRPRPRPAMWPRP, the “shrunken log2 fold change” value was 0.511.
For RRIRWRPPRLPRPRPRPHRKPRP, the “shrunken log2 fold change” value was 0.113.
For RRIRMRPPRLPRPRPRPNHAPRP, the “shrunken log2 fold change” value was -0.113.
For RRIRQRPPRLPRPRPRPRVNPRP, the “shrunken log2 fold change” value was -0.0952.
RRIRPRPPRLPRPRPRPQFLPRP was tested, and the “shrunken log2 fold change” value was -0.164.
With RRIRPRPPRLPRPRPRPLHLPRP the “shrunken log2 fold change” value was -0.311.
In the case of RRIRVRPPRLPRPRPRPFPTPRP, the “shrunken log2 fold change” value is reported as 0.756.
RRIRIRPPRLPRPRPRPWGHPRP was tested, and the “shrunken log2 fold change” value was -0.0191.
With RRIRQRPPRLPRPRPRPTWNPRP the “shrunken log2 fold change” value was -0.0697.
In the case of RRIRIRPPRLPRPRPRPQMYPRP, the “shrunken log2 fold change” value is reported as -0.211.
With RRIRTRPPRLPRPRPRPEDKPRP the “shrunken log2 fold change” value was -0.0305.
RRIRVRPPRLPRPRPRPVYEPRP was tested, and the “shrunken log2 fold change” value was -0.127.
RRIRSRPPRLPRPRPRPYHTPRP was tested, and the “shrunken log2 fold change” value was -0.652.
RRIRHRPPRLPRPRPRPRAGPRP was tested, and the “shrunken log2 fold change” value was 0.638.
For RRIRSRPPRLPRPRPRPNKRPRP, the “shrunken log2 fold change” value was -0.174.
With RRIRMRPPRLPRPRPRPASDPRP the “shrunken log2 fold change” value was 0.869.
RRIRPRPPRLPRPRPRPATDPRP was tested, and the “shrunken log2 fold change” value was 0.00951.
For RRIRPRPPRLPRPRPRPISHPRP, the “shrunken log2 fold change” value was -0.118.
For RRIRFRPPRLPRPRPRPYYMPRP, the “shrunken log2 fold change” value was -0.505.
For RRIRDRPPRLPRPRPRPVQWPRP, the “shrunken log2 fold change” value was 0.0426.
For RRIRKRPPRLPRPRPRPCPWPRP, the “shrunken log2 fold change” value was 0.332.
In the case of RRIRVRPPRLPRPRPRPNERPRP, the “shrunken log2 fold change” value is reported as 0.0435.
RRIRHRPPRLPRPRPRPSHLPRP was tested, and the “shrunken log2 fold change” value was -0.0467.
In the case of RRIRWRPPRLPRPRPRPYPEPRP, the “shrunken log2 fold change” value is reported as -0.224.
For RRIRCRPPRLPRPRPRPVFNPRP, the “shrunken log2 fold change” value was -0.204.
For RRIRVRPPRLPRPRPRPLYRPRP, the “shrunken log2 fold change” value was -0.047.
In the case of RRIRERPPRLPRPRPRPDRMPRP, the “shrunken log2 fold change” value is reported as -0.0498.
With RRIRCRPPRLPRPRPRPVPDPRP the “shrunken log2 fold change” value was -0.0739.
For RRIRSRPPRLPRPRPRPNVYPRP, the “shrunken log2 fold change” value was -0.257.
In the case of RRIRMRPPRLPRPRPRPSRFPRP, the “shrunken log2 fold change” value is reported as 0.253.
For RRIRNRPPRLPRPRPRPNMDPRP, the “shrunken log2 fold change” value was -0.0443.
With RRIRVRPPRLPRPRPRPSMCPRP the “shrunken log2 fold change” value was -0.528.
With RRIRVRPPRLPRPRPRPATRPRP the “shrunken log2 fold change” value was 0.383.
For RRIRQRPPRLPRPRPRPPPEPRP, the “shrunken log2 fold change” value was 0.952.
With RRIRQRPPRLPRPRPRPCNDPRP the “shrunken log2 fold change” value was -0.374.
For RRIRQRPPRLPRPRPRPHVAPRP, the “shrunken log2 fold change” value was -0.0333.
In the case of RRIRVRPPRLPRPRPRPKLMPRP, the “shrunken log2 fold change” value is reported as -0.203.
With RRIRARPPRLPRPRPRPHNIPRP the “shrunken log2 fold change” value was -0.124.
In the case of RRIRERPPRLPRPRPRPCVVPRP, the “shrunken log2 fold change” value is reported as 0.0441.
With RRIRPRPPRLPRPRPRPQRFPRP the “shrunken log2 fold change” value was 0.0622.
With RRIRMRPPRLPRPRPRPQQVPRP the “shrunken log2 fold change” value was 0.00763.
In the case of RRIRMRPPRLPRPRPRPNRKPRP, the “shrunken log2 fold change” value is reported as -0.0954.
With RRIRNRPPRLPRPRPRPKWHPRP the “shrunken log2 fold change” value was 0.129.
With RRIRGRPPRLPRPRPRPESHPRP the “shrunken log2 fold change” value was 0.124.
In the case of RRIRRRPPRLPRPRPRPHCMPRP, the “shrunken log2 fold change” value is reported as -0.329.
For RRIRRRPPRLPRPRPRPMSWPRP, the “shrunken log2 fold change” value was 0.0104.
For RRIRARPPRLPRPRPRPESNPRP, the “shrunken log2 fold change” value was 0.553.
RRIRVRPPRLPRPRPRPITTPRP was tested, and the “shrunken log2 fold change” value was -0.304.
With RRIRQRPPRLPRPRPRPQDVPRP the “shrunken log2 fold change” value was -0.0199.
With RRIRNRPPRLPRPRPRPVKMPRP the “shrunken log2 fold change” value was -0.107.
With RRIRYRPPRLPRPRPRPEWCPRP the “shrunken log2 fold change” value was -0.244.
In the case of RRIRHRPPRLPRPRPRPVMFPRP, the “shrunken log2 fold change” value is reported as -0.0942.
RRIRGRPPRLPRPRPRPQQLPRP was tested, and the “shrunken log2 fold change” value was 0.487.
RRIRPRPPRLPRPRPRPWCAPRP was tested, and the “shrunken log2 fold change” value was 0.208.
RRIRIRPPRLPRPRPRPPKDPRP was tested, and the “shrunken log2 fold change” value was -0.674.
For RRIRWRPPRLPRPRPRPYVTPRP, the “shrunken log2 fold change” value was -0.385.
For RRIRPRPPRLPRPRPRPHMTPRP, the “shrunken log2 fold change” value was -0.47.
In the case of RRIRRRPPRLPRPRPRPPDFPRP, the “shrunken log2 fold change” value is reported as -0.079.
In the case of RRIRERPPRLPRPRPRPWFKPRP, the “shrunken log2 fold change” value is reported as -0.0858.
RRIRKRPPRLPRPRPRPFHIPRP was tested, and the “shrunken log2 fold change” value was -0.025.
For RRIRPRPPRLPRPRPRPHRKPRP, the “shrunken log2 fold change” value was -0.0741.
In the case of RRIRVRPPRLPRPRPRPFIRPRP, the “shrunken log2 fold change” value is reported as -0.148.
In the case of RRIRARPPRLPRPRPRPLRAPRP, the “shrunken log2 fold change” value is reported as 1.19.
For RRIRYRPPRLPRPRPRPSKSPRP, the “shrunken log2 fold change” value was -0.257.
In the case of RRIRARPPRLPRPRPRPVIGPRP, the “shrunken log2 fold change” value is reported as 0.535.
With RRIRERPPRLPRPRPRPSQYPRP the “shrunken log2 fold change” value was -0.113.
With RRIRWRPPRLPRPRPRPYDIPRP the “shrunken log2 fold change” value was -0.00748.
In the case of RRIRSRPPRLPRPRPRPFPHPRP, the “shrunken log2 fold change” value is reported as -0.16.
In the case of RRIRDRPPRLPRPRPRPFWNPRP, the “shrunken log2 fold change” value is reported as -0.28.
In the case of RRIRVRPPRLPRPRPRPEQRPRP, the “shrunken log2 fold change” value is reported as 0.0562.
For RRIRIRPPRLPRPRPRPVPMPRP, the “shrunken log2 fold change” value was -0.143.
With RRIRDRPPRLPRPRPRPAYAPRP the “shrunken log2 fold change” value was 0.058.
RRIRQRPPRLPRPRPRPPNEPRP was tested, and the “shrunken log2 fold change” value was 0.266.
For RRIRPRPPRLPRPRPRPKRFPRP, the “shrunken log2 fold change” value was 0.297.
RRIRPRPPRLPRPRPRPHNFPRP was tested, and the “shrunken log2 fold change” value was 0.0735.
For RRIRNRPPRLPRPRPRPKMPPRP, the “shrunken log2 fold change” value was 0.341.
With RRIRFRPPRLPRPRPRPVDNPRP the “shrunken log2 fold change” value was -0.0449.
RRIRMRPPRLPRPRPRPLQDPRP was tested, and the “shrunken log2 fold change” value was 2.56.

Reference: the supplement of paper PMC9112550, “Optimization of the antimicrobial peptide Bac7 by deep mutational scanning” (BMC Biology, 2022)
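Note: peptides expressed intracellularly from a pBAD plasmid library in pooled LB shake-flask culture, induced with 0.3% L-arabinose, DNA abundance read by NGS, three biological replicates, DESeq2 with apeglm shrinkage.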
